The test system of data set [1] is FIX/cFXI1/XTEN (pCW0735), FIX-KLTRAET-XTEN_AE864.
In data set [2] the test system is FIX/cFXI3/XTEN (pCW0737), FIX-/FXI/-XTEN_AE864.
Data set [3] has as its system FIX/cFXI2/XTEN (pCW0736), FIX-DFTRVVG-XTEN_AE864.
The target in data set [4] is T1, soluble tissue factor (sTF), P13726.
T1 chain: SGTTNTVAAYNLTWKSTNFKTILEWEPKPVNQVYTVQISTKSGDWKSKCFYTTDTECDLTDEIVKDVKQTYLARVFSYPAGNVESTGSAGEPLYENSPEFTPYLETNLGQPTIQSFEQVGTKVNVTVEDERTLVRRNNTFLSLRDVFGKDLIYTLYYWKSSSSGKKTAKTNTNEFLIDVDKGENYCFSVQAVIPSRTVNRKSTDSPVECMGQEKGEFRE

Results on two molecules are retold here after patent US20140328819.

“FXI protease (FXIa) of the aPTT assay plasma”: in data set [1], the Concentration by Activity (ng/ml), aPTT based factor assay turned out to be 7 ng/mL; the “Fraction Active (activity / ELISA)” value came to 30%; the “clotting activity (aPTT based factor assay), fold enhancement by the FXI cleavage site” value is “In all three cases the presence of a FXI cleavage site enhanced the clotting activity by greater than 30-fold”. In data set [2], the Concentration by Activity (ng/ml), aPTT based factor assay is 11 ng/mL; the “Fraction Active (activity / ELISA)” value came to 40%; the “clotting activity (aPTT based factor assay), fold enhancement by the FXI cleavage site” value is “In all three cases the presence of a FXI cleavage site enhanced the clotting activity by greater than 30-fold”. Further, in data set [3], the Concentration by Activity (ng/ml), aPTT based factor assay is 9 ng/mL; the “Fraction Active (activity / ELISA)” value is 34%; the “clotting activity (aPTT based factor assay), fold enhancement by the FXI cleavage site” value was “In all three cases the presence of a FXI cleavage site enhanced the clotting activity by greater than 30-fold”.

B1: FVIIa-AE288 (activated FVII-AE288, AC398) (protein)
chain: AVFVTQEEAHGVLHRRRRANAFLEELRPGSLERECKEEQCSFEEAREIFKDAERTKLFWISYSDGDQCASSPCQNGGSCKDQLQSYICFCLPAFEGRNCETHKDDQLICVNENGGCEQYCSDHTGTKRSCRCHEGYSLLADGVSCTPTVEYPCGKIPILEKRNASKPQGRIVGGKVCPKGECPWQVLLLVNGAQLCGGTLINTIWVVSAAHCFDKIKNWRNLIAVLGEHDLSEHDGDEQSRRVAQVIIPSTYVPGTTNHDIALLRLHQPVVLTDHVVPLCLPERTFSERTLAFVRFSLVSGWGQLLDRGATALELMVLNVPRLMTQDCLQQSRKVGDSPNITEYMFCAGYSDGSKDSCKGDSGGPHATHYRGTWYLTGIVSWGQGCATVGHFGVYTRVSQYIEWLQKLMRSEPRPGVLLRAPFPGSPGTSESATPESGPGSEPATSGSETPGTSESATPESGPGSEPATSGSETPGTSESATPESGPGTSTEPSEGSAPGSPAGSPTSTEEGTSESATPESGPGSEPATSGSETPGTSESATPESGPGSPAGSPTSTEEGSPAGSPTSTEEGTSTEPSEGSAPGTSESATPESGPGTSESATPESGPGTSESATPESGPGSEPATSGSETPGSEPATSGSETPGSPAGSPTSTEEGTSTEPSEGSAPGTSTEPSEGSAPGSEPATSGSETPGTSESATPESGPGTSTEPSEGSAPGSSS
Regarding B1, in data set [4], the “soluble tissue factor (sTF) induced clotting in FVII null plasma (Stago STA-Clot FVIIa activity assay kit)” value is listed as “an activity equivalent to 112 U/ml of FVIIa activity”.
